Assay results reported in publication PMC7116892 (Science (New York, N.Y.), 2021).
Values belong to the binder of their own block, whether it stands above or below them.

Key:
[1] = molecular target: T1, Dyh5 (γ-HC), ODA heavy chain (Tetrahymena thermophila, UniProt I7M6H4 1-4168); assay: cryo-EM structure
[2] = molecular target: T2, Dyh3 (α-HC), ODA heavy chain (Tetrahymena thermophila, UniProt Q22A67 1-4620); assay: cryo-EM structure
[3] = molecular target: T1, Dyh5 (γ-HC), ODA heavy chain; assay: cross-linking
[4] = molecular target: T2, Dyh3 (α-HC), ODA heavy chain; assay: cross-linking

- binding result [1]: binds
- binding result [2]: binds
B1: Shulin (Q22YU3), recombinant full-length, C-terminal 2xStrep (natural protein, Tetrahymena thermophila, UniProt Q22YU3 1-1200, looked up)
chain: MFNFFSSANINQNIPKYSVNDFVFRLKKIEKIVVKEGLDGFLLINGVDSRENTEYVKLTNWLFLGNSGLEIEENEYLNQIYSDMIVLIKKGTTHIFIDPEALNSLQTLIYSIPNVDVFCPTEKQYEDKDEMELLKMAFFLRVMKPTKKVGILLGQKDKGKINSIEKWPLIQSYGLEELGVGFFSMNHEVVDLTLRLNAVYKNYDKFFVSKLIYVVAKRLTGHFNSAAGQLGDMKMHKRNLATESQLTEIFRDTYEIEEISKWVQIRGVNAALPKPRVLFGKNTSADCSKEPSVAPLKDLKYSETFHSFHATFETFDLRTCLRAARTYFLAKGVKEERNLITLNDDEGVPQGYELNIDENQQYKDQDFLANLYLSIIIGFNEVMQLITKDYKNMTEEFIQDYIFQKVSKVYAGFQIPESEITLDKIQIILKAYNSFGEEVKIDFKDTISFKLTPYFFMVRIEQKNIKSQILNNTVLGSLVFAESFILQEGCYLLLTKEIPYFDLWNCQNDYSEKIEKMKKRILWEPLGKQISDELPKNRIFVQTGRKSNYGFDIPIMQASYYMHELGLRIETQRLGWFILFFKEMKEIQITQKMNHTWLIFKVDSNITFNSISKDTIALEFTGDALEQSFFKIKNYFEENQIKYEYQVDIPAIFQESQIAKKQILNQQSQGQKLITMNSIQNEQFFISYIESKQLMILNQMKDLKLSAYKNLYEQMQISQAITPVENHIGVILVNGSYCSGKRKFAENLIRFGSDNNLRLHLYKFDLNEMSELTEKSYLSGLLKFASEKKIQNTDVIVASVPHFINTKILIDYFSKSEKISNAFYIRTIATKININNIYSNFNKNPVNNVFTYGVEGYSQFLLLDTYNNYDADVNALNKTLSGVLPGAKIYKIMNNILNPALAKDILTSITFISEQNNLNRLKYSVQYDLLTSNGPSSVVFIPFKLPILREKIRDLIYKKILQNGNQTLVDTIEAEQKIAEFKELNKNSKDPLMIEIIKLKEKIEIQNAQTSDQAIKIDYVKGILRYDSKLKEGLEEITITPNYFIERTVKGVDAKEFTEELNGVSFKNVKYTGITNSIINDMGFVFAGKNLNKEKLLELLYKLVKPLNKQKLRQRKDLTEEEIVDIQFRNRGEGLENGEFYDGQFWRNIQGLILPHHPKKDEFIEEYLKQEEVRINQINEQLQQEWETWKQVYDKIHLDK

- binding result [3]: binds
- binding result [4]: binds
B2: Q22MS1, recombinant, C-terminal 2xStrep (natural protein, Tetrahymena thermophila, UniProt Q22MS1 1-1892, looked up)
chain: MFQSYLQDIEKENNSSIYNAQAQQNSSTQQSIWDDYIDRQLEHLVVEYQFDFDKIAQRLAGVIGDKQQQKVNFDTCRQRWKQLHLRRYEDKDKDRLDRVSKSVMKMEDPNNALKVQELVEKLPKARQNKDFLKISDEEKLQAFYLNDKGEKIQPTTFNVLKDSVMGIKDKTERERVFKKQQEEFFKSLEKLAGEQDEDMFTKPLIFRAKFTEPTNFNFIVEREELTREQAQRIMSQKVQIKGAGLVPPEPEMGIKMDNYVSMFARPDEEEEELKKKDQEKEVQVNQQIMQDQQETKEEQERDQEELKKQMELTEEEKKKQQEQEEEKKKINVDLYLAERGLKSIDEALNSLEKMRSKVKVNNYFEEAQTEDKKLKEQKEKNQQKVDNEDQIRQEIIKQGLEQLKQKEQGDQLVQFHENQIKKDIKELNEIIGDNKSKNVKNQTQQPNKAVEEEEEIILEKKNDQSKKVPTKKGIFSQFAEEEDSGSEDEVGNDEEELDDELYLQAQRIGLKSDAEIDLFITKKKEERKANMLNKKKVQFSEFSEQKQISEDTDELLAKQEKQIKQKQQFLEKLKKKSENEAGENDESNQEGSQNWRDLEFSAGMAFKRQLEEEKMQRMIKEQFEEEQRRKADQERIRQIQEEYHLKKLDIETKIKLREPLNLEKVNQEKWKEYIEAQQKRREEIEKEFEEKQRIQTEQEEKEQKENLIKEKIHFFEQKIKNFPSNDPFKCFFDDQVSYLSQISSLPSKITTKIADLKKYDISRDGITSRYQILIFPYLDKCQEFVFQFLSFFLRNSFFRQPPSEKELGEIVSENPLDEIPCQRLSSKGFPFCLVSFYIGSHTSEINDEQDEQYLSNYLNDAIKFDKLINDDKLQKSIYLFFDTYIGRGQDTLSKQLDLALTEFLSDGCLDQAIRKYGEKVINRDMKLSDFKTAYYKNMEIAKKLFNESNTFHSICPTKTSYHQTNQLAIHQNKKKQLLPTSPSNSPSIISHSHGNKWETSVIIIRNYSEIQNPSALRQQQNRGVDFSNASDLMQQDVTTEQYSNLSESLSNLVPSHTEISQRQKQQMTDVIHYTLNKLQEKGIQILGMKSFFFDQKTVQEFKSYVENINFNTNTNQPIVVISVAGFDLHSKLKKMVGSEDAQLAKRVEPNSLNALFSTGRDDSIIIPYNKALSRRLISYFFCGRLEKIQTVQDIQVIEGLTNKKQLYLTKPKPFNPVFLLNSQPIREHICLLSSKFLPQQFCEVIRKIQARGFELLNIRVIDSSNLSAILKKDEDFSAFIENENLQELNSGENDYERINLVLHIQGANISSLRNTLLNKIIDYNPFLHPSKREIFYYTKDDLSLTLLKDIFFNRHIKSNFTPSERFPLFIALWPFLNDYEEKEGLTASQAVPLGNDLKIMSSYGLELLSVSKIFKSQIQQKLNTSIEEETEHVDLKSILHQLIQNNIQINSITKKKPEFSTFCSRLGEEILSQDFYLAVFRYQGDRQSKHLDKLFTEVPFVHSNKTINESTVVTHGAKQTPHTQAKPLPTEFLTLFFLDSSAQQVSNFTKLLGIGAFDDWSFKGSFIFDLPSSGYTGEIETLIILSEDVVKTLLLVGLVKIIENNQFKIKSFFKHRCSREFSEVIQENLLQAFSGYESQMHDQGTKLQKIKASLDNLMTRLQGESMYFLVLSKENGIFNGKKILFELAEKYSVFKKETINVESSTEYMLDKGMYCSLNYKCQQREFKELQFMSQQILSMAHENNQEQQDVDKMYDNQLVMVIRIDQQIQLYEVFRKLQSDLKFKIIHFLVMRQFEWTDIQYISSHFTPKFEAQHIQKYFEINNDGIYCIVHLDSKNSVSLSDAFGTLRLNEKGEFKQVIRSSLFGKQEVFFIYTNNPQHVKKLSAYAFKSSE
